According to patent US20080045451A1, “Novel thymidylate synthase mutants” (priority 2000, published 2008):

Assays:
[1] = Steady-state kinetic analysis of purified His-tagged TS proteins; assay type: biochemical, human; settings: 25° C., dUMP 400 μM
Description: To subclone mutant TS fragments into the pH is vector (a modified pUC12 vector provided by A. Hizi), the TS cDNA was PCR-amplified by using HK-MUT5′ and TSXho3′ (5′-[…]-3′, SEQ ID NO: 4). After digestion with NdeI and XhoI, the amplified fragments were ligated into the NdeISalI digested pH is vector. The reconstructed plasmids were verified by both restriction analysis and DNA sequencing. Wild type and mutant TS proteins, as N-terminal hexahistidine fusions, were then purified by metal chelation chromatography on Ni^2+ affinity resin (His Bind resin and buffer kit, Novagen), as previously described, with minor modifications (see Landis, cited above). An overnight culture of χ2913 cells expressing the His-TS fusion protein was diluted 1:100 into 250 ml of 2×YT medium containing carbenicillin and thymidine. […] The concentration of purified TS was determined by using the Bradford assay.
TS activity was monitored spectrophotometrically by the increase in absorbance at 340 nm that occurs concomitant with the production of H2 folate (Δε=6400 M^−1 cm^−1). […] Steady-state kinetic parameters were derived by a nonlinear least squares fit of the data to the Michaelis Menten equation with KaleidaGraph 3.0 software (Abelbeck Software, Reading Pa.). […]

[2] = Inhibition constants (Ki) for 5-FdUMP from Dixon plot; assay type: biochemical, human; settings: 25° C.
Description: TS activity was monitored spectrophotometrically by the increase in absorbance at 340 nm that occurs concomitant with the production of H2 folate (Δε=6400 M^−1 cm^−1). The reaction buffer contained 50 mM TES (pH 7.4), 25 mM NaCl, 6.5 mM formaldehyde, 1 mM EDTA and 150 μM 2-mercaptoethanol. When the concentration of dUMP was varied, a high concentration of (6R)—CH2H4 folate was added (3001200 mM of a racemic mixture); when the concentration of (6R)—CH2H4-folate was varied, the concentration of dUMP was 400 μM. Purified wild type or mutant TS protein was added to initiate the reaction at 25° C. Initial velocity measurements were obtained with a Perkin Elmer Lambda Bio 20 UV/VIS spectrophotometer. Steady-state kinetic parameters were derived by a nonlinear least squares fit of the data to the Michaelis Menten equation with KaleidaGraph 3.0 software (Abelbeck Software, Reading Pa.). […] Two dUMP concentrations (30 μM and 300 μM) were used, and FdUMP concentrations were varied. To initiate reactions, CH2H4-folate was added to yield a final concentration of 300 μM of the active isomer.

E. coli χ2913 cells = assay: Survival of TS-deficient E. coli χ2913 expressing wild type or mutant TS on M9 plates containing 5-FdUR; assay type: cell-based
Description: The resistance of each of the 41 mutants to 5-FdUR is expressed as fold enhancement in survival relative to wild type determined in parallel assays. All assays were carried out in duplicate at varying concentration of 5-FdUR and most comparison were repeated in two or more separate experiments. […] Only those experiments in which the survival of the wild type was lower than 1% were included in this tabulation. The percent survival of the wild type at the indicated concentrations of 5-FdUR is as follows: (a) 0.4% in 0.4 nM; (b) <0.1% in a 150 nM; (c) 0.1% at 150 nM; (d) 0 at 300 nM; (e) 0.5% at 150 nM; (f) 0 at 200 nM; (g) 0.95 at 150 nM.
E. coli χ2913 cells harboring plasmids with random substitutions encoding different amino acids, the TS library, were grown overnight at 37° C. in 2×YT medium containing 50 mg/ml of carbenicillin and 50 mg/ml thymidine. Cultures were diluted 1:100 in the same medium and grown at 37° C. until the OD600 reached 0.6 to 0.8. Aliquots (1 ml) of the exponentially growing cells were pelleted and resuspended in M9 salts and plated on three different media. On 1×YT containing […] of carbenicillin and supplemented with 50 mg/ml of thymidine, essentially all cells harboring the plasmid DNA should be recovered. On M9 plates containing carbenicillin, only cells expressing active TS proteins should grow because the medium lacks thymidine. Drug resistant clones were selected on M9 plates containing carbenicillin and increasing concentrations of 5FdUR essentially as previously described (Landis, D. M., Loeb, L. A., 1998, J. Biol. Chem. 273:25809-25817)
To isolate mutants that render E. coli χ2913 resistant to 5-FdUR, the TS library was plated on M9 minimal medium containing 200 or 300 nM 5-FdUR. […] Resistant colonies were selected and plasmid DNA was isolated and re-transformed into fresh χ2913 cells to confirm that the plasmid was the source of the drug-resistant phenotype.
To obtain a profile of amino acid replacements conferring resistance, the remaining, 3′-proximal third of the cDNA from each of the 33 mutants was sequenced. […] Resistance is recorded as percent survival relative to percent survival of host cells harboring wild type TS at 150 nM 5-FdUR of greater. Expression of TS in 10 of the resistant mutants was analyzed by Western blotting with antiserum directed against human TS. The level of expression of wild type TS was more than 2-fold greater than that of any of the mutants, estimated by visual inspection of the gel (data not shown). The mutant proteins may be more labile than the wild type or more susceptible to proteolytic degradation.

B1: Mutant 302: human TS mutant, substitutions T53S, Y258F (protein, UniProt P04818 2-313, looked up, variant T53S Y258F)
Thymidylate synthase: PVAGSELPRRPLPPAAQERDAEPRPPHGELQYLGQIQHILRCGVRKDDRTGSGTLSVFGMQARYSLRDEFPLLTTKRVFWKGVLEELLWFIKGSTNAKELSSKGVKIWDANGSRDFLDSLGFSTREEGDLGPVYGFQWRHFGAEYRDMESDYSGQGVDQLQRVIDTIKTNPDDRRIIMCAWNPRDLPLMALPPCHALCQFYVVNSELSCQLYQRSGDMGLGVPFNIASYALLTYMIAHITGLKPGDFIHTLGDAHIFLNHIEPLKIQLQREPRPFPKLRILRKVEKIDDFKAEDFQIEGYNPHPTIKMEMAV
- Km for CH2H4-folate, fold higher than wild type TS [1]: approximately 10 fold
- Ki for 5-FdUMP, increase over wild type TS [2]: 6 fold
- Survival Mutant/WT (fold enhancement in survival relative to wild type) (E. coli χ2913 cells; (g) wild type survival 0.95 at 150 nM 5-FdUR): 220 fold
- resistance to 5-FdUR (survival curves), in words (E. coli χ2913 cells; FIG. 3A-3C, single mutants made by site-directed mutagenesis): as resistant or more resistant to elevated concentrations of 5-FdUR than any clone tested
- 5-FdUR concentration at which colonies formed on minimal plates (E. coli χ2913 cells; side-by-side comparison, FIG. 3A, 200 nM clones did not grow at 250 nM): 250 nM
